Literature values as cited in paper PMC11277083, “A Natural Bioactive Peptide from Pinctada fucata Pearls Can Be Used as a Potential Inhibitor of the Interaction between SARS-CoV-2 and ACE2 against COVID-19” (International Journal of Molecular Sciences, 2024).

Tested on: SARS-CoV-2 pseudoparticle
Details: pretreatment; blocking the interaction between ACE2 and the RBD

B1: human defensin 5 (HD5): human defensin 5 (peptide, UniProt Q01523 20-94, looked up)
Defensin alpha 5: ESLQERADEATTQKQSGEDNQDLAISFAGNGLSALRTSGSQARATCYCRTGRCATRESLSGVCEISGRLYRLCCR
modifications: Defensin-5
For B1, the “effect on SARS-CoV-2 pseudoparticle infection” value is listed as “could reduce SARS-CoV-2 pseudoparticle infection”.
